Test results reported in patent publication US20240409635A1 (VIBRANT PHARMA, published 2024).
Residue numbers refer to the chain shown, from its start. One block for each binder: values may come before it.

Key:
[1] = target: T1, recombinant human CD3ε/δ protein (ACRO systems, CDD-H52W1) (human, UniProt P07766 23-126; P04234 22-105); assay: BLI, antibody captured on AHC sensor
T1 construct: Bought reagent
Method: (§1) Antibodies were first captured onto an anti-human IgG Fc coated AHC biosensor (Anti-hIgG Fc, Sartorius, 18-5060). Antibodies were diluted to 5 μg/mL and 1.5 nm protein was coupled to the AHC sensor surface in 0.02% PBST.
(§2) After the sensor captures the antibodies, it is used to bind and dissociate with different concentrations of analytes to obtain the KD value of the interaction. The experimental parameters are as follows: Baseline1: 60 s, Loading: 240 s, Baseline2: 180 s, Association: 240 s, Dissociation: 600 s, High sensitivity kinetics: 2 Hz. Kinetic constants were derived based on the rate equation for 1:1 Langmuir binding to obtain equilibrium dissociation constants (KD). The Data Analysis HT 12 software (Sartorius, 50-5029) was used to simultaneously fit binding and dissociation curves to calculate Kₒₙ, and Koff. The affinity KD was calculated based on the below formula: KD=Koff/Kₒₙ.

[2] = target: T2, recombinant human protein CD3ε/δ (ACRO systems, CDD-H52W1) (human, UniProt P07766 23-126; P04234 22-105); assay: BLI, antibody on AHC sensor, antigen as analyte
T2 construct: Bought heterodimer
Method: as §1
as §2, with “binds” for “is used to bind”, “dissociates” for “dissociate”, “Kₒₙ” for “Kₒₙ,”

[3] = target: T3, recombinant human tumor antigen CEA (CEACAM-5/CD66e, ACRO systems, CE5-H5226) (human, UniProt P06731 35-685); assay: BLI, antibody on AHC sensor, antigen as analyte
T3 construct: Bought
T3 sequence (looked up): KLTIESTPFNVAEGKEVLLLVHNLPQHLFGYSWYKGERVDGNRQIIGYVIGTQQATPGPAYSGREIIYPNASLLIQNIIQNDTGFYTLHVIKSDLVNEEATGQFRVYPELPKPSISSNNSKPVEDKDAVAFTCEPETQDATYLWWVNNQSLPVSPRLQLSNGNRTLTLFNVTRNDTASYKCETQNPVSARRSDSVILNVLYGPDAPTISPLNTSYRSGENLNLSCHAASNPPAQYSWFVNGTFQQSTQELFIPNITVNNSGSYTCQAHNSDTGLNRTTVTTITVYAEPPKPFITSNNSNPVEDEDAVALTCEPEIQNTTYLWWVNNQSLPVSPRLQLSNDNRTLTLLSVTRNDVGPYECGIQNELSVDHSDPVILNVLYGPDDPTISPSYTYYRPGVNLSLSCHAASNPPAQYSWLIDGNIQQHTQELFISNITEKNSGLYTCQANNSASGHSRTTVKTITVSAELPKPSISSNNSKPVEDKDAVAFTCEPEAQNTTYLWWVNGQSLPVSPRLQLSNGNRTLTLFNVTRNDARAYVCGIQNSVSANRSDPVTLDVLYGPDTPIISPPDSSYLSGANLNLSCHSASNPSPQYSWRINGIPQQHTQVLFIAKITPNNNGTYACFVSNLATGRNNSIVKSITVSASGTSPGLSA
Method: as §1
as §2, with “binds” for “is used to bind”, “dissociates” for “dissociate”, “Kₒₙ” for “Kₒₙ,”

[4] = target: T4, recombinant human tumor antigen HER2 (ERBB2, ACRO systems, HE2-H5212) (human, UniProt P04626 23-652); assay: BLI, antibody on AHC sensor, antigen as analyte
T4 construct: Bought
Method: as §1
as §2, with “binds” for “is used to bind”, “dissociates” for “dissociate”, “Kₒₙ” for “Kₒₙ,”

T2 sequence (P07766 23-126, stated change not applied, chain 1 of 2): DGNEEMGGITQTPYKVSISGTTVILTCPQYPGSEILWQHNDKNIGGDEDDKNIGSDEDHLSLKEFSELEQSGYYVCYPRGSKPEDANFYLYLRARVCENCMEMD
T2 sequence (P04234 22-105, stated change not applied, chain 2 of 2): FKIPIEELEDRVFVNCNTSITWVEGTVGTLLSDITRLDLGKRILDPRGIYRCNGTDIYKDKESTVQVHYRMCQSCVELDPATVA
T1 sequence (P07766 23-126, stated change not applied, chain 1 of 2): as the sequence (P07766 23-126, stated change not applied, chain 1 of 2) above
T1 sequence (P04234 22-105, stated change not applied, chain 2 of 2): as the sequence (P04234 22-105, stated change not applied, chain 2 of 2) above

B1: CEA-BsAb bispecific control antibody (TA1-Fab CD3 x CEA VHH) (bispecific antibody, human IgG4 S228P, kappa, F234A L235A)
heavy: EVKLLESGGGLVQPKGSLKLSCAASGFTFNTYAMNWVRQAPGKGLEWVARIRSKYNNYATYYADSVKDRFTISRDDSQSILYLQMNNLKTEDTAMYYCVRHGNFGNSYVSWFAYWGQGTLVTVSSASTKGPSVFPLAPCSRSTSESTAALGCLVKDYFPEPVTVSWNSGALTSGVHTFPAVLQSSGLYSLSSVVTVPSSSLGTKTYTCNVDHKPSNTKVDKRVESKYGPPCPPCPAPEAAGGPSVFLFPPKPKDTLMISRTPEVTCVVVDVSQEDPEVQFNWYVDGVEVHNAKTKPREEQFNSTYRVVSVLTVLHQDWLNGKEYKCKVSNKGLPSSIEKTISKAKGQPREPQVYTLPPCQEEMTKNQVSLWCLVKGFYPSDIAVEWESNGQPENNYKTTPPVLDSDGSFFLYSRLTVDKSRWQEGNVFSCSVMHEALHNHYTQKSLSLSL
chain: EVQLVESGGGFVQAGESLTLSCTSSTLTFTPYRMAWYRQAPGKQRDLVADISSGDGRTTNYADFAKGRFTISRDNIKNTVFLRMTNLKPEDTAVYYCNTFVSFVGIARSWGQGTQVTVSSESKYGPPCPPCPAPEAAGGPSVFLFPPKPKDTLMISRTPEVTCVVVDVSQEDPEVQFNWYVDGVEVHNAKTKPREEQFNSTYRVVSVLTVLHQDWLNGKEYKCKVSNKGLPSSIEKTISKAKGQPREPQVCTLPPSQEEMTKNQVSLSCAVKGFYPSDIAVEWESNGQPENNYKTTPPVLDSDGSFFLVSRLTVDKSRWQEGNVFSCSVMHEALHNRFTQKSLSLSL
light: QAVVTQESALTTSPGETVTLTCRSSTGAVTTSNYANWVQEKPDHLFTGLIGGTNKRAPGVPARFSGSLIGDKAALTITGAQTEDEAIYFCALWYSNLWVFGGGTKVEIKRTVAAPSVFIFPPSDEQLKSGTASVVCLLNNFYPREAKVQWKVDNALQSGNSQESVTEQDSKDSTYSLSSTLTLSKADYEKHKVYACEVTHQGLSSPVTKSFNRGEC
Kd [1]: 0.491 nM | koff [1]: 0.000236 s⁻¹ | kon [1]: 481000 M⁻¹ s⁻¹

B2: unilateral CD3/CEA/HER2 trispecific antibody 611 (other)
chain 1: QVQLVQSGGGLVQAGGSLRLSCAASGRTFSSYAMAWFRQAPGKEREFVAAISWSGANIYVADSVKGRFTISRDNAKDTVYLQMNSLKPEDTAVYYCAVKLGFAPVEERQYDYWGQGTQVTVSSGGGGSGGGGSEVKLLESGGGLVQPKGSLKLSCAASGFTFNTYAMNWVRQAPGKGLEWVARIRSKYNNYATYYADSVKDRFTISRDDSQSILYLQMNNLKTEDTAMYYCVRHGNFGNSYVSWFAYWGQGTLVTVSSASTKGPSVFPLAPCSRSTSESTAALGCLVKDYFPEPVTVSWNSGALTSGVHTFPAVLQSSGLYSLSSVVTVPSSSLGTKTYTCNVDHKPSNTKVDKRVESKYGPPCPPCPAPEAAGGPSVFLFPPKPKDTLMISRTPEVTCVVVDVSQEDPEVQFNWYVDGVEVHNAKTKPREEQFNSTYRVVSVLTVLHQDWLNGKEYKCKVSNKGLPSSIEKTISKAKGQPREPQVYTLPPCQEEMTKNQVSLWCLVKGFYPSDIAVEWESNGQPENNYKTTPPVLDSDGSFFLYSRLTVDKSRWQEGNVFSCSVMHEALHNHYTQKSLSLSL
chain 2: B1 chain
chain 3: B1 light
Kd [2]: 1.77 nM | koff [2]: 0.000727 s⁻¹ | kon [2]: 410000 M⁻¹ s⁻¹ | Kd [3]: 0.195 nM | koff [3]: 0.000108 s⁻¹ | kon [3]: 553000 M⁻¹ s⁻¹ | Kd [4]: 105 nM | koff [4]: 0.0116 s⁻¹ | kon [4]: 111000 M⁻¹ s⁻¹

B6: unilateral CD3/CEA/HER2 trispecific antibody 612 (other)
chain 1: B1 chain with C251Y, S256C, S268W, A270L, V309Y, R337H, F338Y
chain 2: B2 chain 1 with Y487C, C492S, W504S, L506A, Y545V, H573R, Y574F
chain 3: B1 light
Kd [2]: 1.77 nM | koff [2]: 0.000682 s⁻¹ | kon [2]: 386000 M⁻¹ s⁻¹ | Kd [3]: 0.193 nM | koff [3]: 0.000105 s⁻¹ | kon [3]: 542000 M⁻¹ s⁻¹ | Kd [4]: 108 nM | koff [4]: 0.0122 s⁻¹ | kon [4]: 113000 M⁻¹ s⁻¹

More lines, now with the values ahead:

Kd [2]: 1.51 nM | koff [2]: 0.000386 s⁻¹ | kon [2]: 256000 M⁻¹ s⁻¹ | koff [3]: 0.000391 s⁻¹ | kon [3]: 877000 M⁻¹ s⁻¹ | Kd [4]: 98.4 nM | koff [4]: 0.0126 s⁻¹ | kon [4]: 128000 M⁻¹ s⁻¹
B3: HER2-BsAb (CD3 TA1-Fab x HER2 VHH bispecific control antibody) (bispecific antibody, human IgG4 S228P, kappa, F234A L235A)
heavy: B1 heavy
chain: QVQLVQSGGGLVQAGGSLRLSCAASGRTFSSYAMAWFRQAPGKEREFVAAISWSGANIYVADSVKGRFTISRDNAKDTVYLQMNSLKPEDTAVYYCAVKLGFAPVEERQYDYWGQGTQVTVSSESKYGPPCPPCPAPEAAGGPSVFLFPPKPKDTLMISRTPEVTCVVVDVSQEDPEVQFNWYVDGVEVHNAKTKPREEQFNSTYRVVSVLTVLHQDWLNGKEYKCKVSNKGLPSSIEKTISKAKGQPREPQVCTLPPSQEEMTKNQVSLSCAVKGFYPSDIAVEWESNGQPENNYKTTPPVLDSDGSFFLVSRLTVDKSRWQEGNVFSCSVMHEALHNRFTQKSLSLSL
light: B1 light

Kd [2]: 1.64 nM | koff [2]: 0.00045 s⁻¹ | kon [2]: 275000 M⁻¹ s⁻¹ | koff [4]: 0.027 s⁻¹ | kon [4]: 3680 M⁻¹ s⁻¹
B4: CEA-BsAb (CD3 TA1-Fab x CEA VHH bispecific control antibody) (bispecific antibody, human IgG4 S228P, kappa, F234A L235A)
heavy: B1 heavy
chain: B1 chain
light: B1 light

Kd [2]: 1.47 nM | koff [2]: 0.000402 s⁻¹ | kon [2]: 273000 M⁻¹ s⁻¹ | Kd [3]: 0.153 nM | koff [3]: 8.05e-05 s⁻¹ | kon [3]: 525000 M⁻¹ s⁻¹ | Kd [4]: 53.5 nM | koff [4]: 0.00914 s⁻¹ | kon [4]: 171000 M⁻¹ s⁻¹
B5: unilateral CD3/CEA/HER2 trispecific antibody 610 (other)
chain 1: B1 chain with C251Y, S256C, S268W, A270L, V309Y, R337H, F338Y
chain 2: B1 heavy with Y354C, C359S, W371S, L373A, Y412V, H440R, Y441F
chain 3: QVQLVQSGGGLVQAGGSLRLSCAASGRTFSSYAMAWFRQAPGKEREFVAAISWSGANIYVADSVKGRFTISRDNAKDTVYLQMNSLKPEDTAVYYCAVKLGFAPVEERQYDYWGQGTQVTVSSGGGGSGGGGSQAVVTQESALTTSPGETVTLTCRSSTGAVTTSNYANWVQEKPDHLFTGLIGGTNKRAPGVPARFSGSLIGDKAALTITGAQTEDEAIYFCALWYSNLWVFGGGTKVEIKRTVAAPSVFIFPPSDEQLKSGTASVVCLLNNFYPREAKVQWKVDNALQSGNSQESVTEQDSKDSTYSLSSTLTLSKADYEKHKVYACEVTHQGLSSPVTKSFNRGEC
